This note sets out measurements from patent US10487318.

Data set [1] deals with T1, 33mer peptide (LQLQPFPQPQLPYPQPQLPYPQPQLPYPQPQPF).
T1 chain: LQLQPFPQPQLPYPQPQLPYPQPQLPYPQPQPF

In data set [2] the target is T2, α2-gliadin peptide (PQPQLPYSQPQPFR).
T2 chain: PQPQLPYSQPQPFR

The target of data set [3] is T3, fluorescent analogue of gliadin, hexapeptide QPQLPY conjugated to a fluorophore and a quencher.
T3 chain: QPQLPY

For data set [4], the target named is T4, γ-gliadin peptide (IQPQQPAQL).
T4 chain: IQPQQPAQL

In data set [5] the target is T5, Glia_56-79 peptide (LQLQPFPQPQLPYPQPQLPY).
T5 chain: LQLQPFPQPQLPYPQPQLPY

Data set [6] addresses T6, α9-gliadin peptide (QLQPFPQPQLPY).
T6 chain: QLQPFPQPQLPY

The target of data set [7] is T7, fluorescently quenched α-gliadin hexapeptide analogue QXL520-PQPQLP-K(5-FAM)-NH2.
T7 chain: PQPQLP

The target in data set [8] is T8, 26mer peptide (FLQPQQPFPQQPQQPYPQQPQQPFPQ).
T8 chain: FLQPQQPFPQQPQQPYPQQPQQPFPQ

B1: Homologue 1 (NCBI YP_005536585) (protein)
chain: MAPSDVEIVDPVAPEERITVTVLLRRRSSIPDQLIEGPDTLSRAELADRHGADPADVEAVRVAMSGAGLTVVGTDLPSRRVTVAGTAEALMRTFGAELQIVRDASGFQHRARSGELRIPAALDGIVIAVLGLDNRPQAEARFRASQPEAARSFRPDALGRVYRFPANTDGTGQTIAIVELGGGFRQSELDTYFGGLGIPAPQVLAVGVDGGQNLPSGDAGSADGEVLLDIEVAGALAPGARQVVYFAPNTDRGFVDAVTTAVHADPTPAAVSISWGAPEDKWTAQARRAFDAALADAAALGVTVTAAAGDRGSADGEGGGGLHTDFPASSPHLLACGGTKLAVADGGTVASETVWNGGERGGATGGGVSVAFGLPAYQRNAGVDKRRKTGKPGRGVPDVAAVADPATGYEVLVDGEQLVFGGTSAVAPLWAALVARLTQALGRPLGLLNTALYDGAQPGRTQPGFRDVTEGDNDISGKHGPYPARAGWDACTGLGVPDGEALLAALRKPGKE
As for B1, the “activity on peptide (percent)” value in data set [1] is 46%. For the same protein, the “grade and % of peptide after an 80-min incubation” value (from here on “grade and % of peptide”) in data set [2] was “++ (undetect)”; in data set [4], “++/-; 29%”; in data set [5] it was “++; 1.6%”; in data set [6], “-; 80%”. In data set [3], the “rate of degradation of the fluorescent hexapeptide, pH 4.0, 37° C.” value (“rate” for short) is reported as “had activity comparable to or better than Kumamolisin under these conditions”.

B2: Kumamolisin-As (wild type) (protein)
chain: MSDMEKPWKEGEEARAVLQGHARAQAPQAVDKGPVAGDERMAVTVVLRRQRAGELAAHVERQAAIAPHAREHLKREAFAASHGASLDDFAELRRFADAHGLALDRANVAAGTAVLSGPVDAINRAFGVELRHFDHPDGSYRSYLGEVTVPASIAPMIEAVLGLDTRPVARPHFRMQRRAEGGFEARSQAAAPTAYTPLDVAQAYQFPEGLDGQGQCIAIIELGGGYDEASLAQYFASLGVPAPQVVSVSVDGASNQPTGDPSGPDGEVELDIEVAGALAPGAKFAVYFAPNTDAGFLDAITTAIHDPTLKPSVVSISWGGPEDSWTSAAIAAMNRAFLDAAALGVTVLAAAGDSGSTDGEQDGLYHVDFPAASPYVLACGGTRLVASGGRIAQETVWNDGPDGGATGGGVSRIFPLPAWQEHANVPPSANPGASSGRGVPDLAGNADPATGYEVVIDGEATVIGGTSAVAPLFAALVARINQKLGKAVGYLNPTLYQLPADVFHDITEGNNDIANRAQIYQAGPGWDPCTGLGSPIGVRLLQALLPSASQPQPGSTENLYFQSGALEHHHHHH
As for B2, in data set [1], the “Degradation pattern of 33mer (60 min)” value is recorded as “degrades the 33-mer down at only a single location (WT-like)”. Moreover, in data set [1], the “activity on peptide (percent)” value was 18%. In data set [7], this protein gave a Fold Change in Activity of PQ Hydrolysis Relative to Wild Type Kumamolysin-As of 1 fold. Moreover, the “grade and % of peptide” value is “++ (undetect)” in data set [2], “++/-; 39%” in data set [4], “+++; 0.2%” in data set [5] and “++; 2%;” in data set [6]. The “rate” value in data set [3] is on record as “Kumamolisin has some activity breaking down these gliadin substrates”.

B3: Homologue 9 (NCBI YP_005042475) (protein)
chain: MTKQPVSGSSDKIHPDDAKCIGDCDPSEQIEVIVMLRRKDEAGFRQMMSRIDAGEAPGQAVSREEFDRRFTASDEDIDKVKAFAKQYGLSVERAETETRSVVLKGTIEQFQKAFDVKLERFQHHNIGEYRGRTGPVNVPDEMHDAVTAVLGLDSKPQARPHFRFRPPFKPLRGAAPASFSPVDLAKLYDFPDGDGAGQCIAIIELGGGYRDSDLSAYFSKLGVKAPTVVPVGVDGGKNAPTGNPNGPDGEVTLDIEIAGAIAPGARIAVYFAPNSDAGFVDAVNRALHDAANKPSVISISWGGPESNWSPQSMSAFNDVLQSAAALGVTVCAASGDGGSADGVGDGADHVDFPASSPYVLGCGGTSLAASGAGIAKEVVWNDGDQGGAGGGGVSGTFALPVWQKGLSVTRNGKHIALAKRGVPDVAGDASPQTGYEVLIDGEDTVVGGTSAVAPLWAALIARINAIDASPAGFVNPKLYKAKTAFRDITEGNNGSFSAAAGWDACTGMGSPDGGKIAAALKPAKPSQSAGQQ
Take B3: the “grade and % of peptide” value in data set [2] is reported as “++ (undetect)”; in data set [4], “++/-; 32%”; in data set [5] it was “+; 9%”; in data set [6], “+/-; 62%”. Besides, the “rate” value in data set [3] is given as “had activity comparable to or better than Kumamolisin under these conditions”. The “activity on peptide (percent)” value in data set [8] is on record as 52%.

B4: Homologue 4 (NCBI ZP_10028298) (protein)
chain: MANHPLNGSERECLKDAQPIGKADPNERLEVTMLVRRRSHDAFEKHISALAAQGASAKHIDHDEFTKHFGADSADLAAVHAFAQKHGLSVVESHEARRAVVLSGTVAQFDAAFGVSLQQYEHDGGTYRGRTGPIHLPDELNGVVDAVMGLDNRPQARPSFRTRAQGNVRWTARAAGASTFTPVQLASLYDFPQGDGQNQCIGIIELGGGYRPADLKTYFASLNMKAPSVTAVSVDHGRNHPTGDPNGPDGEVMLDIEVAGAVAPGAKIVVYFAPNTDAGFIDAIGTAIHDTKNKPSVISISWGGPESAWTQQAMNAFDQAFQSAAALGVTICAASGDNGSGDGVGDGADHVDFPASSPYALGCGGTSLQASGNGIASETVWNDGANGGATGGGVSSFFALPAWQEGLRVTRAGGAHSPLAMRGVPDVAGNADPVTGYEVRVDGHDMVIGGTSAVAPLWAGLIARINAIKGAPVGYINPHLYKDPLALVDITKGNNDDFHATAGWDACTGLGRPDGKKVKDAVS
On to B4, for which the “Degradation pattern of 33mer (60 min)” value in data set [1] is on record as “WT-like”. Moreover, the “activity on peptide (percent)” value in data set [1] was 38%. In addition, the “grade and % of peptide” value in data set [2] is given as “++ (undetect)”; in data set [4], “+; 12%”; in data set [5], “++; 0.6%”; in data set [6] it was “++/-; 25%;”. Also, the “rate” value in data set [3] is recorded as “had activity comparable to or better than Kumamolisin under these conditions”.

B5: Homologue 4 mutant (protein)
chain: MANHPLNGSERECLKDAQPIGKADPNERLEVTMLVRRRSHDAFEKHISALAAQGASAKHIDHDEFTKHFGADSADLAAVHAFAQKHGLSVVESHEARRAVVLSGTVAQFDAAFGVSLQQYEHDGGTYRGRTGPIHLPDELNGVVDAVMGLDNRPQARPSFRTRAQGNVRWTARAAGASTFTPVQLASLYDFPQGDGQNQCIGIIELGGGYRPADLKTYFASLNMKAPSVTAVSVDHGRNHPTGDPNGPDGEVMLDIEVAGAVAPGAKIVVYFAPNTDAGFIDAIGTAIHDTKNKPSVISISWSGPESAWTQQAMNAFDQAFQSAAALGVTICAASGDNGSGGGVGDGADHVHFPASSPYALGCGGTSLQASGNGIASETVWNDGANGGATGGGVSSFFALPAWQEGLRVTRAGGAHSPLAMRGVPDVAGNADPVTGYEVRVDGHDMVIGGTSAVAPLWAGLIARINAIKGAPVGYINPHLYKDPLALVDITKGNNDDFHATAGWDACTGLGRPDGKKVKDAVS
As to B5, the entries for the “activity on peptide (percent)” value in data set [1] and in data set [8] were 10% and 19%, respectively.

B6: KumaMax™ (protein)
chain: MSDMEKPWKEGEEARAVLQGHARAQAPQAVDKGPVAGDERMAVTVVLRRQRAGELAAHVERQAAIAPHAREHLKREAFAASHGASLDDFAELRRFADAHGLALDRANVAAGTAVLSGPDDAINRAFGVELRHFDHPDGSYRSYLGEVTVPASIAPMIEAVLGLDTRPVARPHFRMQRRAEGGFEARSQAAAPTAYTPLDVAQAYQFPEGLDGQGQCIAIIELGGGYDEASLAQYFASLGVPAPQVVSVSVDGASNQPTGDPKGPDGEVELDIEVAGALAPGAKFAVYFAPDTTAGFLDAITTAIHDPTLKPSVVSISWSGPEDSWTSAAIAAMNRAFLDAAALGVTVLAAAGDSGSTGGEQDGLYHVHFPAASPYVLACGGTRLVASGGRIAQETVWNDGPDGGATGGGVSRIFPLPAWQEHANVPPSANPGASSGRGVPDLAGNADPATGYEVVIDGEATVIGGTSAVAPLFAALVARINQKLGKAVGYLNPTLYQLPADVFHDITEGNNDIANRAQIYQAGPGWDPCTGLGSPIGVRLLQALLPSASQPQPGSTENLYFQSGALE
With B6, in data set [1], the “Degradation pattern of 33mer (60 min)” value is on record as “degrades the 33-mer at multiple locations (Max-like)”. Moreover, the “activity on peptide (percent)” value is 0.1% in data set [1] and 26% in data set [8]. In addition, the “grade and % of peptide” value in data set [2] is reported as “+/-; 65%”; in data set [4] it was “+/-; 55%”; in data set [5], “++++”; in data set [6] it was “++; 0.9%”.

B7: Homologue 2 (NCBI ZP_04943175) (protein)
chain: MQRGTKEGLNMARHLQADREPRIVPESKCLGQCDPAERIHVTIMLRRQEEGQLDALVHQLATGDARAKPVSRDAFAQRFSANPDDIRKTEDFAHRHQLTVDRVDPVESVVVLSGTIAQFEAAFSVKLERFEHRSIGQYRGRSGPIVLPDDIGDAVTAVLGLDSRPQARPHFRFRPPFKPARGAAAVTFTPIQLASLYDFPAGDGAGQCIAIIELGGGYRAADIQQYFRGLGITTPPKLVDVNVGTGRNAPTGEPNGPDGEVALDIEIAGAIAPAAKIAVYFAPNSDAGFIQAVNAAVTDKTNQPSVISISWGGPEAIWQAQSAQAFNRVLQAAAAQGITVCAASGDSGSGDGLQDGADHVDFPASSPYVLGCGGTQLDALPGQGIRSEVTWNDEASGGGAGGGGVSALFDLPAWQQGLKVARADGTTTPLAKRGVPDVAGDASPQTGYEVSVAGTPAVMGGTSAVAPLWAALIARINAANGASAGWINPVLYKHPGALRDITKGSNGTYAAASGWDACTGLGSPNGAQLATILARKPSS
With B7, in data set [1], the “activity on peptide (percent)” value is 31%. Also, the “grade and % of peptide” value in data set [2] is recorded as “++ (undetect)”; in data set [4], “+/-; 65%”; in data set [5], “++; 0.2%”; in data set [6], “++/-; 37%;”. For the same protein, in data set [3], the “rate” value is on record as “had activity comparable to or better than Kumamolisin under these conditions”.
